Source: US20170101664

Molecular target: biosensor SEQ ID NO:47 (KbiotinkkafpaayiaeG-photo-cleavable linker-…rrrqrrkkr)

B1: Lyn kinase (protein)
chain: MGCIKSKGKDSLSDDGVDLKTQPVRNTERTIYVRDPTSNKQQRPVPESQLLPGQRFQTKDPEEQGDIVVALYPYDGIHPDDLSFKKGEKMKVLEEHGEWWKAKSLLTKKEGFIPSNYVAKLNTLETEEWFFKDITRKDAERQLLAPGNSAGAFLIRESETLKGSFSLSVRDFDPVHGDVIKHYKIRSLDNGGYYISPRITFPCISDMIKHYQKQADGLCRRLEKACISPKPQKPWDKDAWEIPRESIKLVKRLGAGQFGEVWMGYYNNSTKVAVKTLKPGTMSVQAFLEEANLMKTLQHDKLVRLYAVVTREEPIYIITEYMAKGSLLDFLKSDEGGKVLLPKLIDFSAQIAEGMAYIERKNYIHRDLRAANVLVSESLMCKIADFGLARVIEDNEYTAREGAKFPIKWTAPEAINFGCFTIKSDVWSFGILLYEIVTYGKIPYPGRTNADVMTALSQGYRMPRVENCPDELYDIMKMCWKEKAEERPTFDYLQSVLDDFYTATEGQYQQQP
Question: How did the “phosphorylation in the in vitro kinase assay” value turn out when B1 was run?
Answer: Lyn kinase did not phosphorylate the biosensor
